Results on six molecules are retold here after patent US20250243277A1 (AVACTA LIFE SCIENCES, published 2025).

Assay [1] deals with T1, human PD-L1-Fc (R&D Systems) (human, UniProt Q9NZQ7 19-239).
T1 construct: Bought from R&D Systems; Biotinylated in-house for the phage selection; also called huPD-L1-Fc; human PD-L1-Fc antigen; not shown: Fc part of the bought fusion
Put plainly: SPR (Biacore); huPD-L1-Fc captured on Protein A chip, Affimer as analyte 0.125 to 2 nM; ILF homodimer (avidity), huPD-L1-Fc captured on Protein A chip. The procedure: (§1) Secreted AFFIMER® clones were purified from supernatant using Ni Sepharose Excel resin (Cytiva) as described in Example 2 and run-on SEC-HPLC to assess their purity and molecular weight (FIG. 11). BIACORE™ was run using a sensor chip Protein A (Cytiva) capturing huPD-L1-Fc (R&D System), and AFFIMER® clones were run in solution as analyte increasing from 0.125 to 2 nM titration and a dissociation time of 2000 seconds. Regeneration of the antigen captured on the chip was performed using a 10 mM glycine pH1.5 solution. […] Avidity was further shown in both the PD-L1 binding ELISA and the Promega cell-based assay, with the ILF dimer blocking the PD-L1:PD1 interaction more strongly than a mammalian produced monomer (FIGS. 13-14).
(Surface plasmon resonance follows binding to a sensor surface in real time, without labels.)

In assay [2] the target is T1, human PD-L1-Fc (R&D Systems). Put plainly: SPR (Biacore): huPD-L1-Fc captured on a Protein A sensor chip, HEK-expressed Affimer as analyte rising from 0.125 to 2 nM, 2000 s dissociation. The procedure: as §1
For assay [3] the target is unchanged. Put plainly: PD-L1 binding ELISA (direct binding, absorbance 450nm - 630nm rises with the Affimer concentration). Column head on the sheet reads 'IC50 nM' although the curve is a half-maximal binding curve; the text does not name the PD-L1 reagent on the plate. A general note: ELISA stands for enzyme-linked immunosorbent assay.
The target of assay [4] is T2, human PD-L1 on CHO cells (human, UniProt Q9NZQ7 19-290). The assay is described as follows: cell-based or functional assay.
T2 sequence (Q9NZQ7 19-290): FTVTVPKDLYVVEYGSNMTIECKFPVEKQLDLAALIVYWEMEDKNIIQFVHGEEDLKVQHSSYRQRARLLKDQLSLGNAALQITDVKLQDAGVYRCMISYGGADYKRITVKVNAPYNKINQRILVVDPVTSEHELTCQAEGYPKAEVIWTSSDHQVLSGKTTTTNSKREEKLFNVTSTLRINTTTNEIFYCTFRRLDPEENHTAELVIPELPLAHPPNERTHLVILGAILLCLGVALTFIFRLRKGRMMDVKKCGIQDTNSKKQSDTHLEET
For assay [5], the target named is T2, human PD-L1 on CHO cells. Put plainly: cell-based or functional assay. The source holds these as a separate data set.
The target in assay [6] is T1, human PD-L1-Fc (R&D Systems). Put plainly: PD-1/PD-L1 competitive ELISA, average n = 2; competitor PD-1-Fc coated. The procedure:
(§2) The competitive inhibition of AFFIMER® multimers was evaluated by enzyme linked immunosorbent assay (ELISA). Human PD-1-Fc (R&D Systems) was coated at 0.5 μg/ml on the plate. Plates were washed two times with […] of washing buffer (PBS, Tween 20 0.1%) with a plate washer and saturated with Casein 5% (Sigma) in PBS for 90 minutes at room temperature (25±1° C.). Plates were subsequently washed. AFFIMER® polypeptides and controls (human PD-1-Fc; R&D Systems or blank) were then diluted in duplicate, and preincubated with huPD-L1-Fc (R&D Systems) at a predefined concentration equivalent to the EC₈₀ for 30 minutes then loaded on the plate for 90 minutes at room temperature (25±1° C.). Plates were washed 3 times. Biotinylated polyclonal antibody anti-human PD-L1 (R&D Systems) was then diluted in dilution buffer and incubated 90 minutes at room temperature (25±1° C.). Plates were washed 3 times and Streptavidin HRP was incubated for 30 minutes at room temperature (25±1° C.). Plates were washed and the substrate (TMB; Pierce Thermo-Scientific) added to the plate for 10 minutes. The reaction was stopped using an acidic solution and plates were read at absorbance 450-630 nm. The IC₅₀ was then calculated using the interpolated non-linear four-parameter standard curve.
Analysis identified three mutants which no longer bind target antigen, three mutants which have reduced binding and twelve (12) mutants which retaining binding to target antigen. […] The mutant AFFIMER® clones which retained binding to PD-L1 were assessed in both a competition ELISA (as described in Example 4) and the PD1:PD-L1 blockade cell-based Promega assay (as described in Example 5).

Assay [7] deals with T2, human PD-L1 on CHO cells. Put plainly: flow cytometry histogram, live-gated hu-PD-L1 CHO cells, Affimer at 100 nM. The procedure:
Human PD-L1 CHO cells having a cell surface over expressing human PD-L1 or CHO-negative cells were plated at 50,000 cells per well in a round bottom tissue culture plate. AFFIMER® clones were titrated from 700 nM or monoclonal antibody (mAb) controls titrated from 10 nM in cell staining buffer (PBS, 1% BSA+2 mM EDTA+0.05% Sodium Azide buffer) and incubated for 1 hour. After two washes with staining buffer, AFFIMER® polypeptides were detected with an anti-cystatin antibody. After a further two washes, AF488-conjugated anti-goat antibody (to detect AFFIMER® polypeptides) or AF488-conjugated anti human IgG1 antibody (to detect mAb controls) were incubated for 40 minutes followed by an additional wash step. Viability dye (Zombie Aqua reagent, Biolegend) was added and the plates were incubated for 10 min. After a final wash, cells were fixed and the data acquired using a multiparameter flow cytometer (Guava 12HT, Luminex Corp).
In general terms: Flow cytometry measures light scatter and fluorescence of single cells or particles in a stream.

Assay [8] concerns the target T1, human PD-L1-Fc (R&D Systems). Put plainly: PD-1/PD-L1 competition ELISA, % inhibition: Affimer pre-incubated with huPD-L1-Fc, then loaded on plate-coated human PD-1-Fc (blocked ligand). How it is done:
as §2, with “curve. […]” for “curve.”

Assay [9] has the same target. The assay is described as follows: SPR (Biacore T200): human PD-L1-Fc amine-coupled on a CM5 chip, Affimer monomer titrated as analyte (500 s association, 1000 s dissociation), 1:1 Langmuir fit. The procedure:
BIACORE™ T200 binding kinetic analysis was performed on monomer AFFIMER® clones with running buffer HBS-EP+ (Cytiva) and a series S sensor CM5 chip immobilized with human PD-L1-Fc (R&D Systems) in 10 mM Sodium acetate pH4.0 μsing amine coupling reagents (Cytiva). A concentration titration of AFFIMER® monomer was run as analyte with an association time of 150 seconds, followed by a dissociation time of 300 seconds at a flow rate of 30 μl/min. For Clone 80, the association time was increased to 500 seconds and 1000 seconds dissociation time. The human PD-L1-Fc immobilized surface was regenerated with 3-3.5 mM NaOH solution (Cytiva) for 20-30 seconds at 20 μl/min flow rate. The kinetic data was blank subtracted and fit to a 1:1 Langmuir binding model (BIAcore evaluation software; Cytiva) to calculate an apparent KD value.

Assay [10] shares this target. Put plainly: PD-L1/PD-1 competition ELISA, % inhibition: Affimer pre-incubated with huPD-L1-Fc, then loaded on plate-coated human PD-1-Fc (blocked ligand). Column head on the sheet reads 'EC50nM'; the text calls these values IC50. How it is done: as §2
The target is the same in assay [11]. Put plainly: SPR (Biacore); huPD-L1-Fc captured on Protein A chip, Affimer as analyte 0.125 to 2 nM; monomer, huPD-L1-Fc captured on Protein A chip. The procedure: as §1
Assay [12] concerns the target T2, human PD-L1 on CHO cells. Put plainly: cell-based or functional assay. The source holds these as a separate data set.
Assay [13] deals with T1, human PD-L1-Fc (R&D Systems). Put plainly: SPR (Biacore 8K), binding to PD-L1-Fc.
Assay [14] deals with T2, human PD-L1 on CHO cells. Put plainly: cell-based or functional assay. This is another data set of the same source.
Assay [15] deals with T2, human PD-L1 on CHO cells. The assay is described as follows: cell-based or functional assay. This is another data set of the same source.

Numbering of substitutions follows the chain as printed. Like-named read-outs stand apart in the source and are kept apart here.

T1 sequence (Q9NZQ7 19-239 limits assumed): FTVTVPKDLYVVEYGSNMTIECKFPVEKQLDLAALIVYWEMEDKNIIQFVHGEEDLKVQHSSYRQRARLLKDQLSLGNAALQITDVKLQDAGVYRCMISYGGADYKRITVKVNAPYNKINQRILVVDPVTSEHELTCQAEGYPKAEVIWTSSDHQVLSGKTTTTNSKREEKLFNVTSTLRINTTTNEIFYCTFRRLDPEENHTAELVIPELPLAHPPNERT

B1: Clone 80 ILF (designed binder)
chain: MIPGGLSEAKPATPEIQEIVDKVKPQLEEKTGETYGKLEAVQYKTQVVRRKHFPQWPGTNYYIKVRAGDNKYMHLKVFKSLDLQPREVFQEDLVLTGYQVDKNKDDELTGFAEAAAKEAAAKEAAAKEAAAKEAAAKEAAAKMIPGGLSEAKPATPEIQEIVDKVKPQLEEKTGETYGKLEAVQYKTQVVRRKHFPQWPGTNYYIKVRAGDNKYMHLKVFKSLDLQPREVFQEDLVLTGYQVDKNKDDELTGF
notes: Two Clone 80 units in one chain joined by the rigid linker A(EAAAK)6; also called in-line fusion (ILF) homodimer; Dimer ILF format
By koff is commonly meant the first-order rate constant of dissociation. Higher therefore signals fast dissociation. Broadly, the kon is the second-order rate constant of association. Read a high kon as fast association. A word on the IC50: it is the concentration at which inhibition is half-maximal. Low values mean greater potency, high ones weaker potency. For B1, the Kd in assay [1] worked out at 0.0103 nM. In assay [2], this molecule showed an off-rate (koff) of 4.56e-05 s⁻¹ and a kon of 4.44e+06 M⁻¹ s⁻¹. The same molecule came in with an IC50 in assay [3] of 0.05 nM.

B2: Clone 80 (designed binder)
chain: MIPGGLSEAKPATPEIQEIVDKVKPQLEEKTGETYGKLEAVQYKTQVVRRKHFPQWPGTNYYIKVRAGDNKYMHLKVFKSLDLQPREVFQEDLVLTGYQVDKNKDDELTGF
notes: type III Affimer monomer made in E. coli; His-tagged; also called Clone 80 parent control molecule
The term EC50 denotes the concentration at which the effect is half-maximal. Read a low EC50 as an effect from little substance. As to B2, the “IC50, PD-1/PD-L1 blockade Bioassay (Promega)” value with human PD-L1 on CHO cells [4] is 30 nM. Besides, the “EC50 (read off the curve); Promega PD-1/PD-L1 blockade bioassay, fold of induction” value (from here on “EC50 (read off the curve) … fold of induction”) with human PD-L1 on CHO cells [5] was ~80 nM. The molecule also yielded an IC50 in [6] of 2.6 nM. Also, in the assay with human PD-L1 on CHO cells [7], the “% (cells in the positive gate)” value turned out to be 98.9% and the MFI turned out to be 1330 MFI. This molecule also had an IC50 in assay [8] of 0.19 nM. Moreover, in assay [9], the Kd is 0.568 nM, the dissociation rate constant (koff) was 0.00163 s⁻¹ and the on-rate (kon) is 2.88e+06 M⁻¹ s⁻¹. For the same molecule, the half-maximal effective concentration (EC50) in assay [10] worked out at 0.538 nM.

B3: Clone 80 monomer (mammalian, HEK-expressed) (designed binder)
chain: B2 chain
notes: also called mammalian produced monomer; mammalian expressed AFFIMER Clone 80 monomer
B3 displayed a Kd in assay [11] of 0.54 nM. In assay [2], this molecule returned a koff of 0.0014 s⁻¹ and a kon of 2.58e+06 M⁻¹ s⁻¹. The molecule also had a 50% inhibitory concentration (IC50) in assay [3] of 0.26 nM.

B4: Clone 80 Q90A (designed binder)
chain: B2 chain with Q90A
notes: alanine mutant of Clone 80 made in E. coli
Take B4: in the assay with human PD-L1 on CHO cells [12], the “EC50 (read off the curve) … fold of induction” value was ~100 nM. The molecule also gave a Kd in assay [13] of 0.97 nM. Further, the IC50 in [6] is 2.23 nM.

B5: Clone 80 E87A (designed binder)
chain: B2 chain with E87A
notes: as for B4
For B5, the “EC50 (read off the curve) … fold of induction” value in the assay with human PD-L1 on CHO cells [14] was ~100 nM. The Kd in [13] was found to be 0.61 nM. In [6], this molecule came in with an IC50 of 3.83 nM.

B6: Clone 80 K51A (designed binder)
chain: B2 chain with K51A
notes: as for B4
With B6, in the assay with human PD-L1 on CHO cells [15], the “EC50 (read off the curve) … fold of induction” value was ~200 nM. Besides, in assay [13], the Kd was found to be 0.66 nM. Also, in assay [6], the IC50 turned out to be 3.35 nM.
